From patent US10350158B2, “2′ fluoro-modified RNAs as immunostimulators” (DUKE UNIVERSITY, priority 2013, dated 2019)
Strand notation (5' to 3'): a small letter for the sugar, then the base; units joined by * are phosphorothioate-linked, units joined directly phosphodiester-linked; [ ] holds rarer units or linkages, { } end groups; capitals alone tell only the bases. {ppp} = triphosphate; r = 2'-OH (RNA); f = 2'-fluoro

Test system: IFNβ
Experiment: IFNβ ELISA of transfected melanoma cell supernatants
Assay type: cell-based, human
Description: For the intracellular delivery of immune stimulatory RNAs, RNAs were transfected with the DharmaFECT® Duo liposomal transfection reagent (Thermo Scientific, Waltham, Mass.) at a transfection reagent (μl):RNA (μg) ratio of 3.75:1, according to the manufacturer's instructions. Unless otherwise stated, for the induction of innate immune responses and apoptosis, immune stimulatory RNAs (500 ng/ml) were transfected into 50 to 70% confluent cells. Cells were incubated with an RNA-transfection agent complex for 5 h, followed by replenishment with fresh culture medium. To electroporate cells, 1×10^5 cells suspended in 200 μl Opti-MEM I (Invitrogen) were mixed with 1 μg of immune stimulatory RNAs or 5 μg of 2'Fluoro pyrimidine ribonucleoside triphosphate in 2-mm cuvettes and were electroporated at 300 V for 500 μs using an Electro Square Porator ECM 830 (BTX, San Diego, Calif.). For the knockdown of RNA-sensing PRRs, cells were transfected with PRR-specific siRNAs (25 nM) twice at 2-day intervals using DharmaFECT®-1 (Thermo Scientific). At 5 h after the second siRNA transfection, cells were harvested, replated into a 96-well plate and incubated overnight. Cells were then treated with immune stimulatory RNA transfections. Staurosporine (2 μM) (Sigma, St Louis, Mo.) and recombinant human IFNβ (20 ng/ml) (PeproTech, Rocky Hill, N.J.) were used as positive controls of anti-melanoma cytotoxicity. […] (100 ng/ml) (eBioscience, San Diego, Calif.) was added directly to the growth media of cells to neutralize IFNβ. Cells were transfected with RNAs as described above. At 24 hours after RNA transfection, culture supernatants were collected and stored at -80° C. for later analyses. The production of human IL-8 was analyzed with a human IL-8 ELISA kit (eBioscience). IFN-β production was determined with a human IFN-β ELISA kit (PBL Biomedical Laboratories, Piscataway, N.J.) by following the manufacturer's instructions.

B1: 10F: 5′ppp 2′F pyrimidine ssRNA aptamer, 71 nt, human melanocytic cell-targeting, SEQ ID NO: 4 (nucleic acid)
chain: {ppp}-rGrGrGrArGrGrAfCrGrAfUrGfCrGrGfUrAfCfCfUrGrAfCrArGfCrAfUfCfUfUrGrAfUrArAfUrGrGfUfCfCfUrAfCrGrGrArGfCfCrGfUfUfCfCrArGrAfCrGrAfCfUfCrGfCfCfCrGrA
0.5 μg/ml, 24 h, ELISA
  IFNβ production, fold compared to unmodified 5′ppp RNAs: over 2 fold
Aptamer treated with bacterial alkaline phosphatase (BAP), 0.125 μg/ml
  IFNβ production after dephosphorylation of the aptamer: partially prevented
Liposomal transfection, ELISA
  IFNβ production / induction, in words: strong induction
